Where two headings read alike, the source gives them in different places.
Tests used:
[1] = target: T1, human CTLA4 (construct not stated) (human, UniProt P16410 36-161, limits assumed); assay: SPR (Biacore 3000), antibody captured by anti-mouse Fc mAb, CTLA4 as analyte
T1 sequence (looked up): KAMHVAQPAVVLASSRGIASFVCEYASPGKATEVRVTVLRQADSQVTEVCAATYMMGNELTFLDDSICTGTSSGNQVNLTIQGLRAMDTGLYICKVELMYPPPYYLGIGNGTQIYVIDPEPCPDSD
Method: (§1) To further characterize the binding characteristics of the antibodies, the hybridoma antibodies were profiled using Biacore (Biacore 3000, GE) to elucidate binding kinetics and calculate equilibrium binding constants. This assay was performed by capture method, using the mouse antibody capture kit (BR-1008-38, GE). After diluting anti-mouse Fc mab to 25 μg/ml in pH 5.0 immobilization buffer, immobilization was conducted with the parameters shown in Table 9 at a flow rate of 5 μl/min. The kinetic runs were done by 1) injecting ligand for typical 0.5-1 min at flow rate of 10 μl/min.; 2) injecting analytes of choice for typical 3 min followed by dissociation in running buffer (1×PBS-P20) for typical 5-10 min at flow rate of 30 μl/min.; and 3) injecting regeneration solution 10 mM Glycine pH 1.7 for typical 1-2 min at flow rate of 10 μl/min.

[2] = target: T2, human CTLA4 on hCTLA4-293T cells (human, UniProt P16410 36-223); assay: FACS on hCTLA4-293T cells, purified murine antibody
T2 construct: whole, on cells
T2 sequence (looked up): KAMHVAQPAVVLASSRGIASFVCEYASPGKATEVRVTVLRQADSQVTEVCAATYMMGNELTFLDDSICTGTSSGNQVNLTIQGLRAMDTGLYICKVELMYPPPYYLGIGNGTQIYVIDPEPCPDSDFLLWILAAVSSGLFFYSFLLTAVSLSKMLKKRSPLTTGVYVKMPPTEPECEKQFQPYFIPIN
Method: (§2) The cells were incubated with the indicated antibody (20 μg/ml with the dilution of 1/5) at 4° C. for 1 hour. Cells were washed three times with FACS buffer. A secondary antibody (PE Goat anti-mouse: 1:200; PE mouse anti-human: 1:10) was added to the cells at 100 μl/well, and incubated at 4° C. for 40 min. Cells were washed three times with FACS buffer and analyzed by FACS Array.
(§3) The purified hybridoma antibodies were characterized further based on ELISA and FACS analyses. The methods applied were similar to those described above in Example 2 except that in these cases, purified antibodies were used to measure EC50 and IC50.

mouse CTLA4 = mouse CTLA4 (mouse, UniProt P09793 36-161, limits assumed); assay: protein based ELISA and other assays, not named
human CTLA4-mFc [3] = target: T3, human CTLA4-mFc (human); assay: ELISA blockage of biotinylated CD80-mFc binding to coated human CTLA4-mFc
T3 construct: Extracellular domain of human CTLA4 fused with mouse Fc; also called hCTLA4-mFc
Method: (§4) ELISA based ligand blockage analysis was conducted via blocking biotinylated human CD80-mFc from binding to human CTLA4-mFc. CTLA4-mFc antigen (CrownBio) was suspended in PBS (Hyclone, Cat No: SH30256.01B) buffer (2 μg/ml, 100 μl/well) and coated on the 96 well plate (Costar, Cat No: 9018) 4° C. overnight. Plates were washed 3 times using washing buffer: PBS+0.05% Tween 20 (Sigma, Cat No: P1379). 200 μl of blocking buffer (PBS+1% BSA (Roche, Cat No: 738328)) was added to each well, incubated at 37° C. for 1 hour, and washed 3 times. Various concentrations (suitable dilutions of hybridoma supernatant in PBS) of the anti-CTLA4 antibodies were added to the wells (100 μl/well) and incubated at 37° C. for 1 hour. Ligand was added (0.1 μg/ml CD80-mFc-biotin, 100 μl/well), incubated at 37° C. for 2 hours, and washed 3 times. Secondary antibody (Avidin HRP, eBioscience Cat No: E07418-1632, 1:500, 100 μl/well) was added, incubated at 37° C. for 0.5 hour, and washed 3 times. TMB (Sigma, Cat No: T0440, 100 μl/well) was added, and incubated for 3 min at room temperature. To stop the reaction, 2N H₂SO₄ (100 μl/well), was added. The colorimetric signals were developed and read at 450 nm using an Auto Plate SpectraMax Plus (Supplier: Molecular Devices; Model: MNR0643; Software: SoftMax Pro v5.4).
The purified hybridoma antibodies were characterized further based on ELISA and FACS analyses. […]

human CTLA4-hFc [4] = target: T4, human CTLA4-hFc (human); assay: ELISA, purified murine antibody on coated human CTLA4-hFc
T4 construct: Extracellular domain of human CTLA4 fused with a human Fc tag; also called hCTLA4-hFc
Method: ELISA binding analysis was conducted using human CTLA4-hFc. 96-well plates (Costar, Cat No: 9018) were coated with 100 μl of 2 μg/ml CTLA4-hFc (CrownBio) in coating buffer (PBS, Hyclone, Cat No: SH30256.01B) overnight at 4° C. The wells were aspirated and non-specific binding sites were blocked by adding 200 μl of blocking buffer with 1% (w/v) of bovine serum albumin (BSA, Roche, Cat No: 738328) and incubating for 1 hour at 37° C. After the plates are washed three times with wash buffer (PBS with 0.05% (v/v) TWEEN-20™ (Sigma, Cat No: P1379)), 100 μl/well of a suitable dilutions of hybridoma supernatant in blocking buffer were added and incubated at room temperature for 1 hour. The plates were washed and incubated with 100 μl/well of Goat anti-Mouse IgG (H+L) (Thermo, Cat No: 31432) in blocking buffer for 60 min. After the plates were washed, 100 μl/well of substrate solution TMB (eBioscience, Cat No: 00-4201-56) was added and the plates were incubated for 2 min at room temperature. 100 μl/well of stop solution (2N H₂SO₄) was added to stop the reaction. The colorimetric signals were developed and read at 450 nm using a Auto Plate SpectraMax Plus (Supplier: Molecular Devices; Model: MNR0643; Software: SoftMax Pro v5.4). Through this method, hybridoma cell lines that produce antibodies highly specifically binding to the human CTLA4 protein were repeatedly selected. […]

[5] = target: T2, human CTLA4 on hCTLA4-293T cells; assay: FACS blockage of biotinylated human CD80 binding to hCTLA4-293T cells
Method: (§5) Various concentrations of the testing hybridoma antibodies were added to the cell suspension and incubated at 4° C. for 60 minutes in 96 well plates. Biotin-labeled CD80 protein was added into the wells and incubated at 4° C. for 60 minutes. […] Flow cytometric analyses were performed using a FACS Array.
as §3

[6] = target: T1, human CTLA4 (construct not stated); assay: SPR (Biacore 3000), capture method as in Example 5, CTLA4 as analyte
Method: as §1
The binding kinetics between CTLA4 and humanized CTLA4 antibodies were measured by Biacore3000 as described in Example 5. The dissociation constant, KD, was calculated from the determined rate constants by the relation KD=kd/ka.

human CTLA4-hFc [7] = target: T4, human CTLA4-hFc; assay: ELISA, humanized antibody on coated human CTLA4
[8] = target: T2, human CTLA4 on hCTLA4-293T cells; assay: FACS blockage of biotinylated human CD80 binding to hCTLA4-293T cells; remark: listed apart in the source
Method: as §5
(§6) After generation and purification of humanized 6F3-hIgG1 and 10B10-hIgG1 antibodies, the binding and specificity of the antibodies were determined using ELISA-based binding and CTLA4/CD80 blockage analyses, as well as FACS-based binding and CTLA4/CD80 blockage analyses. The methods used were similar to those described above in EXAMPLE 4.

human CTLA4-mFc [9] = target: T3, human CTLA4-mFc; assay: ELISA blockage of biotinylated CD80-mFc binding to coated human CTLA4-mFc; remark: listed apart in the source
Method: as §4, with “Secondary antibody (Avidin HRP, eBioscience Cat No: E07418-1632, 1:500, 100 μl/well) was added, incubated at 37° C. for 0.5 hour, and washed 3 times. TMB (Sigma, Cat No: T0440, 100 μl/well) was added, and incubated for 3 min at room temperature. To stop the reaction, 2N H₂SO₄ (100 μl/well), was added.” left out
After generation and purification of humanized 6F3-hIgG1 and 10B10-hIgG1 antibodies, the binding and specificity of the antibodies were determined using ELISA-based binding and CTLA4/CD80 blockage analyses, as well as FACS-based binding and CTLA4/CD80 blockage analyses. […]

[10] = target: T2, human CTLA4 on hCTLA4-293T cells; assay: FACS on hCTLA4-293T cells, humanized antibody
Method: as §2, §6

B1: 6F3 murine (antibody, V domains shown)
VH: QVKLQESGAELVRPGASVTLSCKASGYTFTDYEMHWMKQTPVHGLEWIGVIDPETGGITYNQKFKGKATLTADKSSSTAYMEFLSLTSEDSAVYYCTRRGARATVYNYVMDYWGQGTSVTVSS
VL: DIVMTQTTASLSASVGETVTITCRASENIHNYLAWYQQKQGRSPQLLVYNAKTLGDGVPSRFSGSGSGTQYSLKINSLQPEDFGSYYCQHFWSTPWTFGGGTKLEIK
notes: Mouse monoclonal antibody purified from hybridoma supernatant on Protein G; also called murine antibody 6F3; anti-CTLA4 hybridoma antibody 6F3
Kd [1]: 0.409 nM
koff [1]: 0.000244 s⁻¹
kon [1]: 598000 M⁻¹ s⁻¹
EC50 [2]: 1.18 µg/mL
binding result (mouse CTLA4): no binding
IC50 (human CTLA4-mFc [3]): 0.526 µg/mL
EC50 (human CTLA4-hFc [4]): 0.025 µg/mL
IC50 [5]: 0.526 µg/mL

B2: 10B10 murine (antibody, V domains shown)
VH: DVQLQESGPGLVTPSQSLSLTCSVTGYSITSGYSWNWIRQFPGNKLEWMGYIRFDGNNNYNPFLKNRISITRDTSENQFFLKLNSVTTEDTATYYCARNYGTWGAMDFWGQGTSVTVSS
VL: DIVLTQSPSSLSASLGGKVTITCKTSQDINKYMAWYQHKPGKGPRLLIYYTSILQPGIPSRFSGSGSGTDYSFSINNLEPEDIATYYCQQYDNLNTFGGGTMLEIK
notes: Mouse monoclonal antibody purified from hybridoma supernatant on Protein G; also called murine antibody 10B10; anti-CTLA4 hybridoma antibody 10B10
Kd [1]: 0.219 nM
koff [1]: 0.000152 s⁻¹
kon [1]: 693000 M⁻¹ s⁻¹
EC50 [2]: 0.305 µg/mL
binding result (mouse CTLA4): no binding
IC50 (human CTLA4-mFc [3]): 0.594 µg/mL
EC50 (human CTLA4-hFc [4]): 0.0127 µg/mL
IC50 [5]: 0.511 µg/mL

B3: 6F3 humanized (antibody, human IgG1, kappa, V domains shown)
VH: QVQLVQSGAEVKKPGSSVKVSCKASGYTFTDYEMHWVRQAPGQGLEWIGVIDPETGGITYNQKFKGRATLTADKSTSTAYMELSSLRSEDTAVYYCTRRGARATVYNYVMDYWGQGTLVTVSS
VL: DIQMTQSPSSLSASVGDRVTITCRASENIHNYLAWYQQKPGKAPKLLVYNAKTLGDGVPSRFSGSGSGTDYTLTISSLQPEDFATYYCQHFWSTPWTFGGGTKVEIKR
notes: Humanized IgG1, expressed in Freestyle 293 cells; also called h6F3-IgG1; humanized 6F3-hIgG1
Kd [6]: 0.441 nM
koff [6]: 0.00013 s⁻¹
kon [6]: 295000 M⁻¹ s⁻¹
EC50 (human CTLA4-hFc [7]): 0.00201 µg/mL
IC50 [8]: 0.435 µg/mL
IC50 (human CTLA4-mFc [9]): 0.295 µg/mL
EC50 [10]: 2.33 µg/mL

B4: 10B10 humanized (antibody, human IgG1, kappa, V domains shown)
VH: QVQLQESGPGLVKPSQTLSLTCAVSGYSITSGYSWNWIRQPPGKGLEWMGYIRFDGNNNYNPFLKNRITISRDTSKNQFSLKLSSVTAADTAVYYCARNYGTWGAMDFWGQGTLVTVSS
VL: DIQLTQSPSSLSASVGDRVTITCKTSQDINKYMAWYQQKPGKAPKLLIYYTSILQPGVPSRFSGSGSGTDYTFTISSLQPEDIATYYCQQYDNLNTFGGGTKVEIKR
notes: Humanized IgG1, expressed in Freestyle 293 cells; also called h10B10-IgG1; humanized 10B10-hIgG1
Kd [6]: 0.273 nM
koff [6]: 0.000113 s⁻¹
kon [6]: 414000 M⁻¹ s⁻¹
EC50 (human CTLA4-hFc [7]): 0.00293 µg/mL
IC50 [8]: 0.0253 µg/mL
IC50 (human CTLA4-mFc [9]): 0.285 µg/mL
EC50 [10]: 5.28 µg/mL
